# Assay results published in US20140289906A1, “Compositions Having Dicamba Decarboxylase Activity and Methods of Use” (priority 2013, published 2014).
# Positions count from the first letter of the chain named.
# B1: 31 (protein, listed as Agrobacterium sp.)
# chain: MAQGKVALEEHFAIPETLQDSAGFVPGDYWKELQHRLLDIQDTRLKLMDAHGIETMILSLNAPAVQAIPDKTKAIEIARRANDVLAEECAKRPDRFLAFAALPLQDPDAATEELQRCVNDLGFVGALVNGFSQEGDGQTPLYYDLPQYRPFWGEVEKLDVPFYLHPRNPLPQDSRIYDGHPWLLGPTWAFAQETAVHALRLMASGLFDEHPRLNIILGHMGEGLPYMMWRIDHRNAWVKLPPRYPAKRRFMDYFNENFHITTSGNFRTQTLIDAILEIGADRILFSTDWPFENIDHASDWFNATSIAEADRVKIGRTNARRLFKLDGA
# B2: 36 (protein, listed as Agrobacterium sp.)
# chain: B1 chain with K31T, V84A, D94N, E112Q, T139I, M251V, N302H, A328R
# B3: 49 (protein, listed as Streptomyces sp.)
# chain: MAKIIALEEHFSDPAVAKAGAARARALSPGFAASYSPASGLPYSPSPEVLENLAEKRLADMDAGGITMQVLSGLGAQTVPADVAPALVAGSNDKAAAAVRAHPDRFAAFAALPTATPEAAVAELDRSVNELGFVGTLIMGRTEGEFLDAPRFEPILARAAALKVPVFLHPGVPPREITDSNYAAGLPTGIGTRLQTAAWGWHQETAVHFLHLVHSGVLDRYPDLQFILGHWGEMIPFYLDRVDEALPQRATGLDRSFHEYFRENVYLAPSGMWSQAQLRFCLETVPLERIVFAVDYPFIGNEGAVPFLEKAELPQADKRKIAHENAERLLGL
# B4: 34 (protein)
# chain: MAQGKIGLEEHFAIPETLNDSAGFVPGDYWKELSRRLLDIQDDRLRQMDENGMEMMLLSLNAPAVQAVPDRKQACELAVRANDFLAEQVSRRPDRFQALAALPLQDPDFATVELTRCVNELGMRGALVNGFSQIDTPDNVVYYDAPQYASFWAAVEKLDVPFYLHPRNPIASWAQIYDGHPWLLGPTWAFGQETAVHALRLMASGLFDRHPALQIVLGHLGEGLPYSLWRIDNRNAWVKAPKTHPAKKTFRHYFQQNFHLTTSGNFHNQTLIDAILEIGADRILFSTDWPFENIDHAAKWFDSASISEADRTKIGRTNAMKLFKLVA
# modifications: Cupriavidus necator
# B5: 33 (protein, listed as Rhizobium leguminosarum)
# chain: MAQGKIALEEHFAIPETLQDSAGFVPGDYWKELSARLLDIQEKRLRLMDAHGIEKMILSLNAPAVQAIPDRAKALEISRRANDFLAEQCVKNPNRFLGFAALPLQDPDAATQELQRCVTTMGFVGALVNGFSQEGDGTTPLYYDLPQYRSFWAEVEKLNVPFYLHPRNPLPQDSRIYAGHSWLMGPTWAFAQETAVHALRLMGSGLFDEHPALRIIVGHMGEGLPYMMWRIDNRNAWVKVEKSYPAKRPIADYFNENFYITTSGNFRTQSLIDAMLEIGADRILFSADWPFENIDHAANWFDSATISEADRLKIGRTNAVSLFKLDR
# B6: 43 (protein, listed as Rhizobium leguminosarum)
# chain: B5 chain with K31T, E42D, A50T, R71K, L75V, S150P, N159D, I294V
# B7: 44 (protein, listed as Mycobacterium avium)
# chain: MARIITVEEHFQHPEVSARVAELTGPAVEGLAEFGNAFSLDPDSTARLGGNRLAHMDQVGIDVQVVSHGNGSPGTLQHPEAVELCRRVNNDLAAQIAENPDRFRGFATLPLYDPAAAAEELRRCVGDLGFVGALIAGSYDGLFLDDERFDPILTAAEAVDFPIYVHPGLPEAPVSQRYYAGSWPASVHMMFSGPAFGWHAEAGIHIVRLILSGALDRHPTLKLLSGHWGELAAFYLERLDETLGLLPTGLERAPSDYYRQQVWITPSGMYNQNQLNFMTAELGAQRIIYSEDFPYVVRDNVSTFLEQAGLSEADTHAIAHTNAEALLRI
# B8: 46 (protein, listed as Rhodococcus opacus)
# chain: MARIITLEEHYLDPAIAAASAPLARELSPDFAAAYDPASGLSYTPSAQVLQDLGQRRIADMDTHGISMQVLSCLTTQQVPADVAPDLVRAANDTAAAAVRAHPDRFAAFAALPTTAPDAAATELARCIDDLGFVGTMINGRTDGEFLDAPRFDPILATAAARNVPIYLHPAVPPRATSDSNYAGLAPLVTARLQTSAWGWHQETAVHFLHLVLSGVLDRYPNLQFILGHWGEMIPFYLDRLDEALPQAVTNLDRTISDYVRENVYITPSGMFNQAQLQYCVETLGVDRILYSVDYPFIGNDGAVSFLDEANLPDEAKHQIAHQNTEKLLGL
# B9: 35 (protein)
# chain: MAFKASRKIALEEHFAIDATVQDSAGFVPPSYWAELKRRLLDIHDRRIDEMDRNGVELMVLSLNAPTVQAVPNIKDAYDLSRRANDFLAEQIVKRPERFKGFAALPMQSPDLAARELERCVKELNFVGALVNGFSQVEESGTALYYDLPQYRQFWSVVQALDVPFYLHPRNPLPAHAPIYEGHPWLLGPTWAFGQETAVHALRLMGSGLFDEYPELKIILGHMGEGLPYSMWRIDNRNAWVETQPNYPAKKRIAEYFHKNFWLTTSGNFRTQTLIDAMLEIGSDRILFSTDWPFENVDHAAQWFDDAAISENDRIKIARTNAARLFKLEP
# modifications: Burkholderia sp
# B10: 30 (protein)
# chain: MARGKIALEEHVSTPENNRLWDSTGEANRNGSEYMQDVERRLLDRSIQLEEMAQRNIDHVILSLTSPGAQSILDKAKAVSFARDTNDFIVDNYVKPNPDKFSAFATLALQNPEAAAEELERAVKKLGMKGALINGYTNVKDSEHGLYLDDESMLVFWDKVNELNVPVYLHPREPLEGPARGIYTGYESLIGSAWGFAQETAVHAIRLMMSGLFDRYPNLNLVLGHLGEGLVHMLPRTQHRLYRQRFGCGLGKAEKPLMHYLQNNFIVTTSGHFNTHSLNNAIEVMGADRVMFSVDYPYEDIHQACDWFDPLEMDEGLKEKIAWGNASRVFNIK
# modifications: Enterobacter aerogenes
# B11: 47 (protein, listed as Serratia odorifera)
# chain: MAKIICLEEHTLDKALVMASMPAALAQAPFLSDWGKTITDGNLPDRSRPQIEKNDLINVKGADIGRGRLDDMDEAGITMQVLSVGGFPHLISAAEGVDLNRAANDRLANAVNAHPDRFAAFATLPWAQPDAAEKELERAVKELGFKGALLNGRPSIHFLDHPDYDGLLARFNALGVPLYLHPGLPVRSVQQAYYSGFSDEVTARLSMFGWGWHHEAGIHLLRLILSGAFDKYPNLQVISGHWGEMLPFWLQRLDDSLPQAATGLRRTITQTFREQVYVTPSGMLTLPHFQFIYALLGAERILFSVDYPYQTLDGVKAFIQSLPVPEEAKEAIAFRNAERLFGLTS
# B12: 28 (protein, listed as Sphingomonas paucimobilis)
# chain: MARLIATEEAVTFQPVVDALRAHSRTDDASLDMILVRDVYGDEPARPAMIGRLSDVTGERLAEMDSNGVDMHLLSLTAPGVQMFDAETGTRLARIANDLMAQTVAANPTRFAGLGTFAPQDPASAAREIERVATQLRLNGLVINSHTNDLYYDDPFFHPVFEAIEASGLALYIHPRAPSKQIDRAFRDYGMNSAIWGYGIETSTNAVRMILSGLFDRFPRLKIVLGHMGEAIPFWLWRLDYMHGNATTFGGAPKLKLKPSEYFRRNFAITTSGVESHAALRYSIEVLGPENVMWAIDYPYQPMAPAVQFIRTAPIPEDVKAMVAGGNAARIFRIT
# B13: 48 (protein, listed as Amycolatopsis mediterranei)
# chain: MASMKLYGLEEHFVTADVIEAWRRRDPGLAEPMMKWAVASDITPALLDVDGGRIAAMDDAGIDTTVLSLTTPGLQNLDAAEAVALQAPTNDLIAAAVRRHPGRFQGFATLATSAPAAAADELRRAVTELGLNGALVNANSRGRALDAPGFWDIYEAAEDLRAPVYLHPGVPVPAVTEAYYRGFGEPVNSMLATGAFGWHYDAGLTILRMIVAGVFDRFPGLQVILGHWGEVVLFYLDRVAAMDKLTALRRPIAEYFRSNIFITPGGISSHKYLRWSLETVGVERIMYASDYPFNTERAGSARRFLDTAPVDEAGRERIAYRNWEELIAGIRR
# Test: 14C assay: 14CO2 capture from [14C]-carboxyl-labeled dicamba with IPTG-induced recombinant E. coli cells
# Settings: IPTG-induced recombinant E. coli cells; 14CO2 from [14C]-carboxyl-labeled dicamba
row,Molecule,Dicamba Decarboxylase Activity
1,B1,High
2,B2,High
3,B3,High
4,B4,High
5,B5,High
6,B6,High
7,B7,High
8,B8,High
9,B9,High
10,B10,High
11,B11,High
12,B12,High
13,B13,High

# Same assay, conditions: among the 108 sequences tested; recombinant E. coli cell assay
row,Molecule,decarboxylation activity of dicamba
1,B1,showed decarboxylation activity of dicamba
2,B2,showed decarboxylation activity of dicamba
3,B3,showed decarboxylation activity of dicamba
4,B4,showed decarboxylation activity of dicamba
5,B5,showed decarboxylation activity of dicamba
6,B6,showed decarboxylation activity of dicamba
7,B7,showed decarboxylation activity of dicamba
8,B8,showed decarboxylation activity of dicamba
9,B9,showed decarboxylation activity of dicamba
10,B10,showed decarboxylation activity of dicamba
11,B11,showed decarboxylation activity of dicamba
12,B12,showed decarboxylation activity of dicamba
13,B13,showed decarboxylation activity of dicamba

# Same assay, conditions: dicamba decarboxylation activity
row,Molecule,Enzymatic Detection level
1,B1,High
2,B2,High
3,B3,High
4,B4,High
5,B5,High
6,B6,High
7,B7,High
8,B8,High
9,B9,High
10,B10,High
11,B11,High
12,B12,High
13,B13,High
